Test results taken from publication PMC11983104 (Nucleic Acids Research, 2025).

Molecular target: GST-NLE1-Ubl WT (human, UniProt Q9NVX2 11-104)
Assay: ITC

Chain of GST-NLE1-Ubl WT (Q9NVX2 11-104): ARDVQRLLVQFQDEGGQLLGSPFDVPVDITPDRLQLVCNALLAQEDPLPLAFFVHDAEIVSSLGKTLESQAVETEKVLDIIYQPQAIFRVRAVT

Kd: 5.5 nM
B1: MDN1-MIDAS-(His)6 (domain or fragment)
chain: ELERQLEMWQPRESGNPEEEKVAAEMWQSYLILTAPLSQRLCEELRLILEGSGKPSKRQYQICLAIDDSSSMVDNHTKQLAFESLAVIGNALTLLEVGQIAVCSFGESVKLLHPFHEQFSDYSGSQILRLCKFQQKKTKIAQFLESVANMFAAAQQLSQNISSETAQLLLVVSDGRGLFLEGKERVLAAVQAARNANIFVIFVVLDNPSSRDSILDIKVPIFKGPGEMPEIRSYMEEFPFPYYIILRDVNALPETLSDALRQWFELVTASDHP
